The values that follow come from article PMC8440562, “MAD2L2 dimerization and TRIP13 control shieldin activity in DNA repair” (Nature Communications, 2021).

The stoichiometry N is a count of units in the complex or per binding partner.

Data set [1] concerns the molecule itself. The data set is described as follows: SEC; Superdex-200 in buffer C (25 mM Tris pH 8, 0.3 M NaCl, 10% glycerol, 0.5 mM TCEP, 10 mM MgCl2) + 0.1 mM ATP; proteins incubated 2 h on ice with 2 mM ATP before the run; equimolar in Fig. 3f.
The next data set concerns the target T1, MAD2L2^WT (E. coli) (human, UniProt Q9UI95 1-211).
T1 construct: MAD2L2 (REV7), human; source: E. coli Rosetta, purified (metal chelating column, PreScission cleavage, SEC); not shown: GST/hexahistidine-MBP fusion-tag, N-terminal, cleaved
The data set can be described thus: pull-down; 0.25 uM MBP-SHLD3^28-83 pre-adsorbed on amylose beads, eightfold molar excess of MAD2L2 variant, time course at 4 C in buffer B (10 mM HEPES pH 7.5, 0.15 M NaCl, 5% glycerol, 0.5 mM TCEP); Coomassie SDS-PAGE. The following applies: both partners purified.

Another data set has as its target T2, MAD2L2^1xMut (E. coli) (human, UniProt Q9UI95 1-211, R124A).
T2 construct: MAD2L2 (REV7), human, with R124A; also called MAD2L2^R124A; source: E. coli Rosetta, purified (metal chelating column, PreScission cleavage, SEC); not shown: GST/hexahistidine-MBP fusion-tag, N-terminal, cleaved
The description is as above. The conditions noted are these: both partners purified.

Another data set has as its target T3, MAD2L2^3xMut (E. coli) (human, UniProt Q9UI95 1-211, K44A | R124A | A135D).
T3 construct: MAD2L2 (REV7), human, with K44A, R124A and A135D; also called MAD2L2^K44A/R124A/A135D; source: E. coli Rosetta, purified (metal chelating column, PreScission cleavage, SEC); not shown: GST/hexahistidine-MBP fusion-tag, N-terminal, cleaved
Described as above. The following applies: both partners purified.

T1 sequence (Q9UI95 whole entry, the tested form may be a part): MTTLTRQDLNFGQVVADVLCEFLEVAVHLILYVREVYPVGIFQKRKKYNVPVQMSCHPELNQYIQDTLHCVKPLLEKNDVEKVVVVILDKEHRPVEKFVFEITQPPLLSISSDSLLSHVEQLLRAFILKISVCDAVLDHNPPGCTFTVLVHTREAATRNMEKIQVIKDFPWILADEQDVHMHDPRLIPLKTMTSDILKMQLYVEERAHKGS
T2 sequence (Q9UI95 whole entry R124A, the tested form may be a part): as the sequence (Q9UI95 whole entry, the tested form may be a part) above, with R124A counted along it
T3 sequence (Q9UI95 whole entry K44A/R124A/A135D, the tested form may be a part): as the sequence (Q9UI95 whole entry, the tested form may be a part) above, with K44A, R124A, A135D counted along it

B1: His6-EGFP-TRIP13^E253Q (enzyme, human, UniProt Q15645 1-432, looked up)
chain: MDEAVGDLKQALPCVAESPTVHVEVHQRGSSTAKKEDINLSVRKLLNRHNIVFGDYTWTEFDEPFLTRNVQSVSIIDTELKVKDSQPIDLSACTVALHIFQLNEDGPSSENLEEETENIIAANHWVLPAAEFHGLWDSLVYDVEVKSHLLDYVMTTLLFSDKNVNSNLITWNRVVLLHGPPGTGKTSLCKALAQKLTIRLSSRYRYGQLIEINSHSLFSKWFSESGKLVTKMFQKIQDLIDDKDALVFVLIDQVESLTAARNACRAGTEPSDAIRVVNAVLTQIDQIKRHSNVVILTTSNITEKIDVAFVDRADIKQYIGPPSAAAIFKIYLSCLEELMKCQIIYPRQQLLTLRELEMIGFIENNVSKLSLLLNDISRKSEGLSGRVLRKLPFLAHALYVQAPTVTIEGFLQALSLAVDKQFEERKKLAAYI
notes: TRIP13, human, with E253Q; printed mass of GFP-TRIP13 75.5 kDa; source: insect cells (Hi5, baculovirus, biGBac), purified
For the molecule B1, the “stoichiometry N” value in data set [1] was 6.

B2: TRIP13^E253Q (48.5 kDa form, Fig. 3f) (enzyme, human, UniProt Q15645 1-432, looked up)
chain: B1 chain
notes: TRIP13, human, with E253Q; printed mass 48.5 kDa (291 kDa for hexamer); The printed mass fits TRIP13 without the EGFP fusion; source: insect cells (Hi5, baculovirus, biGBac), purified
For B2, in data set [1], the “stoichiometry N” value was 6.

B3: MBP-SHLD3^28-83 (domain or fragment, human, UniProt Q6ZNX1 28-83, looked up)
chain: QDFPTRPLSRFIPWFPYDGSKLPLRPKRSPPVISEEAAEDVKQYLTISEHDAKSHS
notes: SHLD3, human, residues 28-83; contains only the second RBM; also called SHLD3^28-83 peptide; SHLD3-fragment; source: E. coli Rosetta, purified (metal chelating column, SEC); not shown: hexahistidine-MBP, N-terminal, kept
Regarding B3, the binding result in the data set with MAD2L2^WT (E. coli), with MAD2L2^1xMut (E. coli) and with MAD2L2^3xMut (E. coli) was “binds” each time.
